Among the data in publication PMC9491610 are screen value and ratio to parent values, retold here.

B1: Stu2-HA (wild-type Stu2, 3xHA tagged) [S. cerevisiae] / γ-tubulin (Tub4) [S. cerevisiae (endogenous in yeast extract)] (parent)
chain 1: MSGEEEVDYTTLPLEERLTYKLWKARLEAYKELNQLFRNSVGDISRDDNIQIYWRDPTLFAQYITDSNVVAQEQAIVALNSLIDAFASSSLKNAHNITLISTWTPLLVEKGLTSSRATTKTQSMSCILSLCGLDTSITQSVELVIPFFEKKLPKLIAAAANCVYELMAAFGLTNVNVQTFLPELLKHVPQLAGHGDRNVRSQTMNLIVEIYKVTGNNSDLLEEILFKKLKPIQVKDLHKLFAKVGDEPSSSKMLFEWEKRELEKKRSQEEEARKRKSILSNDEGEYQIDKDGDTLMGMETDMPPSKQQSGVQIDTFSMLPEETILDKLPKDFQERITSSKWKDRVEALEEFWDSVLSQTKKLKSTSQNYSNLLGIYGHIIQKDANIQAVALAAQSVELICDKLKTPGFSKDYVSLVFTPLLDRTKEKKPSVIEAIRKALLTICKYYDPLASSGRNEDMLKDILEHMKHKTPQIRMECTQLFNASMKEEKDGYSTLQRYLKDEVVPIVIQIVNDTQPAIRTIGFESFAILIKIFGMNTFVKTLEHLDNLKRKKIEETVKTLPNFSIASGSTHSTIETNKQTGPMENKFLLKKSSVLPSKRVASSPLRNDNKSKVNPIGSVASASKPSMVAANNKSRVLLTSKSLATPKNVVANSTDKNEKLIEEYKYRLQKLQNDEMIWTKERQSLLEKMNNTENYKIEMIKENEMLREQLKEAQSKLNEKNIQLRSKEIDVNKLSDRVLSLENELRNMEIELDRNKKRNDTNLQSMGTISSYSIPSSTVSSNYGVKSLSSALPFKEEEDVRRKEDVNYERRSSESIGDLPHRVNSLNIRPYRKNGTGVSSVSDDLDIDFNDSFASEESYKRAAAVTSTLKARIEKMKAKSRREGTTRT
chain 2: MGGEIITLQAGQCGNHVGKFLWSQLAKEHAIGTDGLSQLPDSSTERDDDTKPFFRENSRNKFTPRAIMMDSEPSVIADVENTFRGFFDPRNTWVASDGASAGNSWANGYDIGTRNQDDILNKIDKEIDSTDNFEGFQLLHSVAGGTGSGLGSNLLEALCDRYPKKILTTYSVFPARSSEVVVQSYNTILALRRLIEDSDATVVFDNASLLNISGKVFRNPNIDLQHTNQLISTIISSVTNSIRFPSYMYSSMSSIYSTLIPSPELHFLSPSFTPFTSDYIHDDIAHKGHSSYDVMLDLLDPSNSLVSTAMNNPTYFNVYNTIIGNVEPRQISRAMTKLQQRIKFPSWSSSAMHVNIGRRSPYLPLQPNENEVSGMMLSNMSTVVNVFENACNTFDKVFAKGAFLNNYNVGDLFQSMQNVQDEFAESREVVQSLMEDYVAAEQDSYLDDVLVDDENMVGELEEDLDADGDHKLV

In this test the parent is B1. The test can be described thus: co-immunoprecipitation, western blot densitometry. To be noted: with γ-tubulin (Tub4) [S. cerevisiae (endogenous in yeast extract)], PBS buffer, three biological replicates, read off a plot; for screen value: parent: 0; for ratio to parent: parent: 1. Background: Immunoblotting shows a protein as a band on a membrane.

As to chain 1 K252R K469R, the screen value was -0.5 and the ratio to parent was determined as 0.7.

Regarding chain 1 K252R K469R K870R, the screen value is -3. Turning to chain 1 K469Q, the screen value is 1.5 and the ratio to parent came out at 4. As to chain 1 K469R, the screen value came to 0.75 and the ratio to parent was found to be 2.2. chain 1 K252Q K469Q: the screen value is 1 and the ratio to parent was 2.5. As to chain 1 K252R, the screen value was -0.05 and the ratio to parent came out at 1.2. In the case of chain 1 K252Q, the screen value is 1.8 and the ratio to parent was 7. chain 1 K252Q K469Q K870Q: the screen value came to 1.8 and the ratio to parent stood at 5.5. Take chain 1 K870R: the screen value was determined as 0.1 and the ratio to parent was 1.5. The matching figures for chain 1 K870Q: -0.6 and 0.9.
